Article PMC9817314, “Detection of human annexin A1 as the novel N-terminal tag for separation and purification handle” (Microbial Cell Factories, 2023)

Experiments:
[1] = target: S100A11 (Homo sapiens) (UniProt P31949); conditions: cited from earlier work
[2] = target: T1, human annexin A1 (hanA1) tagged emerald green fluorescent protein (EmGFP) (human, UniProt P04083 3-346); experiment: pull-down; MBP-hS100A11 immobilised on amylose resin; hanA1-EmGFP in crude extract (clear lysate) in buffer B (20 mM Tris-HCl pH 8.0, 10% glycerol, 1 mM CaCl2), room temperature, 2 h; washed with buffer B containing 50 mM NaCl; eluted with buffer C (buffer A with 5 mM EDTA-Na2); SDS-PAGE; conditions: one partner purified
T1 construct: human annexin A1, amplified from a human brain cDNA library; EmGFP (reporter, detected by fluorescence) follows after the BamH I / Bgl II junction; also called hanA1-EmGFP; HanA1-EmGFP; source: E. coli BL21(DE3); in crude extract (clear lysate), or separated by CaCl2 precipitation and EDTA-Na2 resolubilisation; not shown: EmGFP, C-terminal, kept
T1 sequence (looked up): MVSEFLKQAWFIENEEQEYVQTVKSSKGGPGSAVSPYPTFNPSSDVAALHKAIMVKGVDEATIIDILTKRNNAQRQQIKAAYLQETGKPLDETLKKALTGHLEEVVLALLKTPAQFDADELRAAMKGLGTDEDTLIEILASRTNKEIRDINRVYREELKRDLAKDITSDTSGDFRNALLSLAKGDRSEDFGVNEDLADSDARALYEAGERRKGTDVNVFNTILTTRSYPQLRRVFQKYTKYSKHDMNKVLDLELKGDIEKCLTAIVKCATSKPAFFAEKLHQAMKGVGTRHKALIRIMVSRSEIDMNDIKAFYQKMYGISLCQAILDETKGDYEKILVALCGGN

For “annexin I N-terminal peptide (from UniProt P04083)”, the Kd [1] is listed as 5 µM.

B1: MBP-hS100A11 (human S100A11 fused to maltose binding protein) (natural protein, UniProt P31949 2-105, looked up)
chain: AKISSPTETERCIESLIAVFQKYAGKDGYNYTLSKTEFLSFMNTELAAFTKNQKDPGVLDRMMKKLDTNSDGQLDFSEFLNLIGGLAMACHDSFLKAVPSQKRT
notes: human S100A11, amplified from a human cDNA library; also called MBP-S100A11; immobilized S100A11; source: E. coli, soluble; immobilised on amylose resin and washed; not shown: MBP, N-terminal, kept
B1: binds [2].
